Data from paper PMC11686378, “Communication between DNA polymerases and Replication Protein A within the archaeal replisome” (Nature Communications, 2024).

T1: RPA^ΔWH (Rpa1/Rpa2(1-179)/Rpa3), RPA lacking the winged-helix domain of Rpa2 (Pyrococcus abyssi)
T1 chain 1: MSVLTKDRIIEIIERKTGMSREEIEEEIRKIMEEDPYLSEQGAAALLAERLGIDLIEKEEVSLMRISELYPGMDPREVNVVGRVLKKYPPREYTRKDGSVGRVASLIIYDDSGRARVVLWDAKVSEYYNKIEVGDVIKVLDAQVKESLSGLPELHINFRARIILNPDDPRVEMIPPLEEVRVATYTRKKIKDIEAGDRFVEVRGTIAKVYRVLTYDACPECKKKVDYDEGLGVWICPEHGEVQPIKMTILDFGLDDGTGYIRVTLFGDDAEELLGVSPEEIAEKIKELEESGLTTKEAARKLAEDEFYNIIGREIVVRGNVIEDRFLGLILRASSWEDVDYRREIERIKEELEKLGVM
T1 chain 2: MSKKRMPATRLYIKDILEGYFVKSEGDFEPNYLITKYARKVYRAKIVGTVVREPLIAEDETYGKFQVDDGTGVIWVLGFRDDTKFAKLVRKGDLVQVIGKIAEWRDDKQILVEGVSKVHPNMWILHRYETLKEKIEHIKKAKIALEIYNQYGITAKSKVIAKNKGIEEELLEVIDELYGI
T1 chain 3: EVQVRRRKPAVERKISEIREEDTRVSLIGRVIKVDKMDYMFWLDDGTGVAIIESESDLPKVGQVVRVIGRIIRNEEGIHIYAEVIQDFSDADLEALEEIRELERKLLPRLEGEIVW

B1: DNA primase PriSL (PriS-PriL heterodimer) from P. abyssi, in solution (complex, Pyrococcus abyssi)
chain 1: MLLREVTKEERKEFYSNEWNAKQIPDFILQNLDKREFGFDHTGEGPSDRKNSYTDVRDLEDYIKATAPYAVYSSVAFYEKPQEMEGWLGAELVFDIDAKDLPLRRCNHEPGKVCPICLNDAKEIARDTLIVLKEELGFEDVHVVYSGRGYHIRVMDGWALSLDSKSRERILSFISASEIEDHSEFRKMLLERRGWFVLNHGYPRVFRLRFGYFILRVKVEHLINFGIRKNIAKRILDNKETIYEEFVRKGILAAFPDGVGIESLAKLFALSTRFSKAYFDGRVTVDLKRILRLPSTLHSKVGLIAKYIGNNERDVMRFNPFKHAVPKFRRKEVKEEYKRFLEENF
chain 2: MLDPFSEKAKELLKEFGSINDFLNSIPRIVDVEEVIERVKIASDRKLLEGFVDIEDIKDLAQFYALLGALSYSPYGLELELVKKANILLYSERIRREKEIRPEEISLRINKAIEFPIDDLKKIERVFGKLPEYTIHLAEFLDLIPGERLSEYYIYNGNVYLRKEDLIKVWMKAFERNIEKSVNMLYEIRDELPGFFREVLGGIKEVAEQEFGKSGEVKAGTLRPDLFPPCVKNALKGVPQGLRNYAITVLLTSFLSYARICPNPPRRNVRVKDCIDDIRIITDEILPLIIEAANRCSPPLFEDQPNEIKNIWYHLGFGYTANPKLEDSGNSTWYFPPNCDKIRANAPQLCTPDKHCKYVRNPLTYYLRRLYLEGRKNASKGGNERGEKRVLQQ
notes: PriS, catalytic small subunit of the DNA primase, Pyrococcus abyssi; PriL, large subunit of the DNA primase, Pyrococcus abyssi, with its C-terminal 4Fe-4S domain; Analyte in BLI on His-Rpa2^WH and on RPA-ssDNA filaments; also called full-length PriSL; source: E. coli BL21 Star (DE3), polycistronic PriS-PriL, purified (heat 60 °C, HisTrap, heparin, SEC)

Experiments:
Conditions in all cases: both partners purified
[1] = target: T2, Replicative DNA polymerase PolD (DP1-DP2 heterodimer) from P. abyssi, in solution (Pyrococcus abyssi); assay: BLI; histidine-tagged Rpa2^WH captured on Ni-NTA sensors; PriSL (7.81-500 nM) or PolD (15.62-1000 nM) in solution; steady-state analysis; 25 °C, buffer E with 0.2 mg/ml BSA
T2 construct: DP1, proofreading small subunit of DNA polymerase D, Pyrococcus abyssi; DP2, polymerization large subunit of DNA polymerase D, Pyrococcus abyssi; also called unlabeled PolD; source: E. coli BL21 Star (DE3), purified (heat 60 °C, HisTrap, heparin, SEC)

[2] = target: B1; assay: as above
[3] = target: T1, RPA^ΔWH (Rpa1/Rpa2(1-179)/Rpa3), RPA …; assay: BLI; RPA or RPA^ΔWH nucleoprotein filaments on a 3'-TEG-biotin 50-nt ssDNA held on streptavidin sensors; PriSL (1.56-100 nM) or PolD (15.62-1000 nM) in solution; steady-state analysis; 25 °C, buffer E with 0.2 mg/ml BSA

Kd [1] [µM] | Kd [2] [µM] | fold weaker interaction than with wild-type RPA filaments (at 12.5 nM PriSL) [3] [fold] | Binder
0.098 ± 0.049 | 0.025 ± 0.009 |  | Histidine-tagged Rpa2^WH (Rpa2 residues 178-268), C-terminal winged-helix domain of P. abyssi Rpa2 (domain or fragment) MGKHHHHSGHHHTGHHHHSGSHHHTSSSASTGENLYFQGTGGIMMEERSIEEPMEELLEEEIPEEKEENELLEKAKEDILNILRQKRTAISRKYILKKLGDKYDEETIDDAITELLAQGEIYEPETGYYKLL
 |  | 7 | B1
